# Measured values reported in patent publication US20080300209, “GENE EXPRESSION AND PAIN” (ADYNXX, INC., published 2008).
# B1: SEQ ID NO 41 EGR1 consensus decoy (dsDNA)
# DNA 1: GATGCGTGGGCGTAGG
# DNA 2: CCTACGCCCACGCATC
# B2: SEQ ID NO 42 fused EGR1 sites decoy (dsDNA)
# DNA 1: GTATGCGTGGGCGGTGGGCGTAG
# DNA 2: CTACGCCCACCGCCCACGCATAC
# B3: SEQ ID NO 40 double EGR1 site decoy (dsDNA)
# DNA 1: GTTATGCGTGGGCGTAGATGCGGGGGCGTTATAG
# DNA 2: CTATAACGCCCCCGCATCTACGCCCACGCATAAC
# Legend:
# [1] = biological target: T1, EGR1 (endogenous, HL60 cells) (Homo sapiens, UniProt P18146 P18146:1-543); experiment: cell_activity; inhibition of CDK5R1 mRNA in HL60 cells 48 h after vitamin D3; figure legend states 502 nM
# T1 sequence (P18146 whole entry, one chain of several): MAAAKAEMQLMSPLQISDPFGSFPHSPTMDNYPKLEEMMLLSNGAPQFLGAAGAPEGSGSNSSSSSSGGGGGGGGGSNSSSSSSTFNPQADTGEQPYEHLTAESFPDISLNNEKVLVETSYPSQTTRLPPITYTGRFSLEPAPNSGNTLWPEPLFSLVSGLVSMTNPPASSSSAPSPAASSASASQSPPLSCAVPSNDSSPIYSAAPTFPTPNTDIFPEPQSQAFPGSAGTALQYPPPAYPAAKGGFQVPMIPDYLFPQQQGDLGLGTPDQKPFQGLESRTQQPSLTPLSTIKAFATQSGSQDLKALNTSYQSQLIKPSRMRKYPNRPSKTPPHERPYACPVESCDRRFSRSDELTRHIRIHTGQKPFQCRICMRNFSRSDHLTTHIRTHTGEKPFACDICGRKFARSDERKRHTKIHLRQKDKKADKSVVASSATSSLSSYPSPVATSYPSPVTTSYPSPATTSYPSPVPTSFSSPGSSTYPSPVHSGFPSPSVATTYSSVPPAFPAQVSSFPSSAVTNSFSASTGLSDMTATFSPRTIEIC
# EGR1 [2] = biological target: T2, EGR1 (Homo sapiens, UniProt P18146 P18146:1-543); experiment: competition; ELISA vs 128 nM biotinylated SEQ 40 probe, 10 ug nuclear extract; conditions: protein: extract; tags: endogenous in nuclear extract of TPA-stimulated K-562 cells (Activemotif)
# T2 sequence (P18146 whole entry, one chain of several): as above
# Experimental: (§1) FIG. 2. A. Relative affinity. Quantitative competition ELISA involving hEGR1 were performed using a constant concentration of biotinylated SEQ ID NO.: 40 (128 nM) as the probe and 10 μg of protein extract. The probe-protein mix was incubated with increasing concentrations of SEQ ID NO.: 40, SEQ ID NO.: 41 or SEQ ID NO.: 42 competitors. The inhibition of hEGR1 binding by the probe was measured for each competitor at various concentrations and the resulting inhibition curves were fitted to an exponential decay model. […] Mean±SEM are given as a percentage of the maximum hEGR1 binding obtained with the probe in absence of competitor; n=2-4. B. Relative specificity. The relative binding of EGR1 oligonucleotide decoy sequences to hSP1 and hWT1 transcription factors was measured using quantitative ELISA. Top graph: representative OD binding values of SEQ ID NO.: 40 (128 nM) to either hSP1 or hWT1 transcription factors, as compared to hEGR1 binding, was detected with transcription factor-specific antibodies in either the presence or absence of SEQ ID NO.: 42 competitor (512 nM). For comparison, SEQ ID NO.: 11 binding to hSP1 is shown. […]
# (§2) The affinity and specificity of decoy sequences for their transcription factor targets was measured with colorimetric transcription factor ELISA (Enzyme linked immuno adsorbent) kits (Panomics, Calif., USA). […]
# [3] = biological target: T1, EGR1 (endogenous, HL60 cells); experiment: cell_activity; inhibition of CDK5R1 mRNA in HL60 cells 48 h after vitamin D3; figure legend states 136 nM
# [4] = biological target: T1, EGR1 (endogenous, HL60 cells); experiment: cell_activity; inhibition of CDK5R1 mRNA in HL60 cells 48 h after vitamin D3; figure legend states 443 nM
# EGR1 [5] = biological target: T2, EGR1; experiment: competition; ELISA; self-competition vs 128 nM biotinylated SEQ 40 probe, 10 ug nuclear extract; conditions: protein: extract; tags: endogenous in nuclear extract of TPA-stimulated K-562 cells (Activemotif); label: biotin (probe)
# Experimental: as §1, §2
Binder,IC50 [1] [nM],IC50 (EGR1 [2]) [nM],IC50 [3] [nM],IC50 [4] [nM],IC50 (EGR1 [5]) [nM]
B1,529,250,,,
B2,,99,150,,
B3,,,,544,215
